Four molecules from article PMC9579160 can be followed below.

One may read the stoichiometry N as the number of molecules, sites or subunits per partner or assembly.

Test [1] deals with His-tag-fused PHR domain of CraCRY (M1-A489) (C. reinhardtii). The test can be described thus: SEC; lit (blue light); inline SEC of the SAXS runs, Superdex 200, 50 mM HEPES pH 7.4, 150 mM NaCl, 5% glycerol, 25 °C, 2 to 10 mg/mL. In general terms: Size exclusion chromatography separates by hydrodynamic size, large species first.
For test [2], the target named is His-tag-fused full-length wild-type CraCRY (C. reinhardtii animal-like cryptochrome) (C. reinhardtii). Described as above.
Test [3] concerns the target Strep-tag-fused CraCRY::mCitrine (C. reinhardtii). The test can be described thus: single-molecule pull-down (TIRF colocalisation with photobleaching step counting); lit (blue light, 450 nm): Strep-tag-fused CraCRY::mCitrine tethered to the glass slide by streptavidin as bait, ROC15(GARP)::mCherry as prey.
For test [4] the target is unchanged. The test can be described thus: single-molecule photobleaching step counting; lit (blue light): photobleaching steps of CraCRY::mCitrine protein complexes counted by TIRF microscopy.
Test [5] has the same target. Briefly: single-molecule pull-down (TIRF colocalisation with photobleaching step counting); lit (blue light, 450 nm): Strep-tag-fused CraCRY::mCitrine tethered to the glass slide by streptavidin as bait, ROC15(GARP)::mCherry as prey. This is another data set of the same source.

In test [1], “His-tag-fused PHR domain of CraCRY (M1-A489) (domain or fragment)” gave a stoichiometry N of 2. As for “His-tag-fused full-length wild-type CraCRY (C. reinhardtii animal-like cryptochrome) (natural protein)”, the stoichiometry N in test [2] was 2.

In the case of “Strep-tag-fused CraCRY::mCitrine (natural protein)”, the dimer fraction without colocalized ROC15 in test [3] stood at 15.5%. Besides, the population of two-step bleaching in test [4] was 25.1%.

B1: ROC15(GARP)::mCherry (domain or fragment)
chain: MGEEYADDGTTRAVKRPRLVWTPQLHRKFESAVIKLGEDKAVPKTIMQEMNIDGLTRENVASHLQKYRM
Turning to B1, in test [5], the fraction of interacting CraCRY (colocalization) came out at 23.3%; the percentage of interaction between ROC15 and CraCRY monomers worked out at 25.1%.
